Key:
Assay type in all cases: biochemical
CaMKI = biological target: T1, CaMKI (Homo sapiens, UniProt Q14012); assay: Millipore radiometric kinase activity assay, CaMKI (h); conditions: for CaMK1 Kinase Activity: peptide inhibitor 300 μM, SD of 2 samples
T1 construct: purchased Millipore (assay service)
Method: (§1) A commercial radiometric assay service (Millipore, Billerica, Mass.) was used to test the specificity and potency of peptides containing a coupled transduction domain and therapeutic domain, hereinafter “complete peptides”). In these assays, if the kinase is not inhibited by an inhibitor peptide, a positively charged substrate is phosphorylated with a radiolabeled phosphate group from an ATP.
(§2) In a final reaction volume of 25 μL, CaMKI (h) (5-10 mU) is incubated with 8 mM MOPS pH 7.0, 0.2 mM EDTA, 0.5 mM CaCl2, 16 μg/mL calmodulin, 250 μM […] [SEQ ID NO: 52], 10 mM MgAcetate and [γ-^33P-ATP] (specific activity approx. 500 cpm/pmol, concentration as required). The reaction is initiated by the addition of the MgATP mix. After incubation for 40 minutes at room temperature, the reaction is stopped by the addition of 5 μL of a 3% phosphoric acid solution. 10 μL of the reaction is then spotted onto a P30 filtermat and washed three times for 5 minutes in 75 mM phosphoric acid and once in methanol prior to drying and scintillation counting.
(§3) IC50 values for inhibitor peptides were determined using Millipore's IC50Profiler Express service. The IC50 value was estimated from a 10-point curve of one-half log dilutions. For peptides tested for specificity, the concentration of the peptides that inhibited approximately 95% of MK2 activity was chosen to profile against a battery of kinases related to MK2, cell viability, or human disease from MilliporeKinaseProfiler service. In both assays, compounds were supplied in dimethylsulfoxide (DMSO). Every kinase activity measurement was conducted in duplicate.
(§4) Therapeutic inhibitor peptides were assayed for activity against human kinases related to MK2, cell viability, or human disease. The assays were performed using concentrations of therapeutic inhibitor peptides that yielded 2% to 8% of normal MK2 activity. Error is reported as the standard deviation between 2 samples, and “c” is rat AMPK whereas all other kinases used are human kinases.
(§5) Additional therapeutic inhibitor peptide variants were assayed for activity against several human kinases representative of several families of kinases. These kinases included: MK2; MK3; CaMKI (calcium/calmodulin-dependent protein kinase); PRAK (p38 regulated/activated protein kinase, also known as mitogen-activated protein kinase activated protein kinase 5 (MAPKAPK5)); SAPK2a (p38α); IRAK4 (IL-1 receptor (IL-1R)-associated kinase); MLCK (myosin light chain kinase); PKBβ (protein kinase B); PCKδ (protein kinase C); and ROCK-I (Rho-associated serine/threonine kinase).

IRAK4 = biological target: T2, IRAK4 (Homo sapiens, UniProt Q9NWZ3); assay: Millipore radiometric kinase activity assay, IRAK4 (h)
T2 construct: purchased Millipore (assay service)
T2 sequence (Q9NWZ3 1-460): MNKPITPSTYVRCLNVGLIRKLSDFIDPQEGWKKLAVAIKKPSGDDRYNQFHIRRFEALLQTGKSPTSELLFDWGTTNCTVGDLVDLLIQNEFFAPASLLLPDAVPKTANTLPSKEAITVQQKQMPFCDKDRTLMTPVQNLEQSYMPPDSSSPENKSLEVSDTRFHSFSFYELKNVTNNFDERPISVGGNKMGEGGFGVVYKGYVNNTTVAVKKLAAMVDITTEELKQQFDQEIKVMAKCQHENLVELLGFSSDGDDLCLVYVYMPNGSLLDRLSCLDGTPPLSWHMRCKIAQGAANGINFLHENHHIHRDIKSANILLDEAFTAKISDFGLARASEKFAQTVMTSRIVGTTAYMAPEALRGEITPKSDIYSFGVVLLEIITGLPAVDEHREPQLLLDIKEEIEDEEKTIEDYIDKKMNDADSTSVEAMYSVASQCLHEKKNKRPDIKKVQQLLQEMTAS
Method: as §1
In a final reaction volume of 25 μL, IRAK4 (h) (5-10 mU) is incubated with 8 mM MOPS pH 7.0, 0.2 mM EDTA, 0.33 mg/mL myelin basic protein, 10 mM MgAcetate and [γ-^33P-ATP] (specific activity approx. 500 cpm/pmol, concentration as required). The reaction is initiated by the addition of the MgATP mix. After incubation for 40 minutes at room temperature, the reaction is stopped by the addition of 5 μL of a 3% phosphoric acid solution. 10 μl of the reaction is then spotted onto a P30 filtermat and washed three times for 5 minutes in 75 mM phosphoric acid and once in methanol prior to drying and scintillation counting.
as §3, §4, §5

PKBβ = biological target: T3, PKBβ (Homo sapiens, UniProt P31751); assay: Millipore radiometric kinase activity assay, PKBβ (h); conditions: for PKBβ Kinase Activity: peptide inhibitor 300 μM, SD of 2 samples
T3 construct: purchased Millipore (radiometric assay service)
Method: as §1
(§6) In a final reaction volume of 25 μL, PKAβ (h) (5-10 mU) is incubated with 8 mM MOPS pH 7.0, 0.2 mM EDTA, 30 μM […] [SEQ ID NO: 60], 10 mM MgAcetate and ['y-^33P-ATP] (specific activity approx. 500 cpm/pmol, concentration as required). The reaction is initiated by the addition of the MgATP mix. After incubation for 40 minutes at room temperature, the reaction is stopped by the addition of 5 μL it of a 3% phosphoric acid solution. 10 μL of the reaction is then spotted onto a P30 filtermat and washed three times for 5 minutes in 75 mM phosphoric acid and once in methanol prior to drying and scintillation counting.
as §3, §4, §5

PKCδ = biological target: T4, PKCδ (Homo sapiens, UniProt Q05655); assay: Millipore radiometric kinase activity assay, PKCδ (h); conditions: for PKCδ Kinase Activity: peptide inhibitor 300 μM, SD of 2 samples
T4 construct: purchased Millipore (radiometric assay service)
Method: as §1
as §2, with “PKCδ” for “CaMKI”, “20” for “8”, “HEPES” for “MOPS”, “7.4, 0.03% Triton X-100, 0.1 mg/mL phosphatidylserine, 10” for “7.0, 0.2 mM EDTA, 0.5 mM CaCl2, 16”, “diacylglycerol, 50” for “calmodulin, 250”, “61],” for “52],”
as §3, §4, §5

ROCK-I = biological target: T5, ROCK-I (Homo sapiens, UniProt Q13464); assay: Millipore radiometric kinase activity assay, ROCK-I (h); conditions: for ROCK-1 Kinase Activity: peptide inhibitor 300 μM, SD of 2 samples
T5 construct: purchased Millipore (radiometric assay service)
Method: as §1
as §6, with “ROCK-I (b)” for “PKAβ (h)”, “63],” for “60],”, “[γ-^33P-ATP]” for “['y-^33P-ATP]”, “μL” for “μL it”
as §3, §4, §5

[1] = peptide 30 μM, listed as WLRRIKAWLRRI-
[2] = peptide 100 μM, listed as KAFAKLAARLYRLARQLGVAA

T5 sequence (Q13464 whole entry): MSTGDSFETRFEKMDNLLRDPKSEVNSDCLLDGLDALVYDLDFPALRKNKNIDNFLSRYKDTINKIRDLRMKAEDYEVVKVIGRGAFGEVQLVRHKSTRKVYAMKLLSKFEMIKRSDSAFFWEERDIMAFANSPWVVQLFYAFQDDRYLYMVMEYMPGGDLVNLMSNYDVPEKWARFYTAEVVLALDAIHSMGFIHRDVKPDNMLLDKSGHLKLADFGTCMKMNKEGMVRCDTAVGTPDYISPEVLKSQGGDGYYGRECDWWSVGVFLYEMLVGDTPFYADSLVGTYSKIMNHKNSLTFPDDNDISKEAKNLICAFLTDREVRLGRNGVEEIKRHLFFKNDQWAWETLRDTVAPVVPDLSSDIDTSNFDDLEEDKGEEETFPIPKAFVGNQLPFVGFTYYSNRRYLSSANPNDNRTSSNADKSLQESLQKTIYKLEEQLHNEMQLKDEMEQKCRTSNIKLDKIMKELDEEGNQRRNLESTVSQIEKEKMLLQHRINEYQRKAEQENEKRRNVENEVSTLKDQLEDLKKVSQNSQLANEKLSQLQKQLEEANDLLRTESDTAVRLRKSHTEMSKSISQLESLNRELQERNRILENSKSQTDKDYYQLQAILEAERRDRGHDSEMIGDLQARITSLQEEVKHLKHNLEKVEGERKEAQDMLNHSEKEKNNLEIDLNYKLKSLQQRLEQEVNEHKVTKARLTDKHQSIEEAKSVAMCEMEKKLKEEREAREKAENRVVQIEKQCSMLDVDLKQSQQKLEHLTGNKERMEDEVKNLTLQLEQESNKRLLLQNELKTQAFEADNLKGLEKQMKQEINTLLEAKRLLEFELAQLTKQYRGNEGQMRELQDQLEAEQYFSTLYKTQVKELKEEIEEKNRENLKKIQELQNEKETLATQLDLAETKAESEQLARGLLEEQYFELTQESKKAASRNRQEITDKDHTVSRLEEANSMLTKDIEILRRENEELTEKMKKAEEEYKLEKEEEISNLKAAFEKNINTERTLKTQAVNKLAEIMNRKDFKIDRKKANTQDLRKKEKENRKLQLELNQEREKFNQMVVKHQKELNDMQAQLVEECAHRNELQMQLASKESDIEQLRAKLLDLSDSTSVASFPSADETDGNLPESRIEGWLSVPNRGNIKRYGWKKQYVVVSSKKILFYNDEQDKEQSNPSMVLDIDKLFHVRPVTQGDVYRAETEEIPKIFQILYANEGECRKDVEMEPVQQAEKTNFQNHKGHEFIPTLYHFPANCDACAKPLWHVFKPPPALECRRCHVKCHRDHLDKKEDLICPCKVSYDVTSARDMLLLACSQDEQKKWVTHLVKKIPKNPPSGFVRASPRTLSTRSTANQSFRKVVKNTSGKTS
T4 sequence (Q05655 whole entry): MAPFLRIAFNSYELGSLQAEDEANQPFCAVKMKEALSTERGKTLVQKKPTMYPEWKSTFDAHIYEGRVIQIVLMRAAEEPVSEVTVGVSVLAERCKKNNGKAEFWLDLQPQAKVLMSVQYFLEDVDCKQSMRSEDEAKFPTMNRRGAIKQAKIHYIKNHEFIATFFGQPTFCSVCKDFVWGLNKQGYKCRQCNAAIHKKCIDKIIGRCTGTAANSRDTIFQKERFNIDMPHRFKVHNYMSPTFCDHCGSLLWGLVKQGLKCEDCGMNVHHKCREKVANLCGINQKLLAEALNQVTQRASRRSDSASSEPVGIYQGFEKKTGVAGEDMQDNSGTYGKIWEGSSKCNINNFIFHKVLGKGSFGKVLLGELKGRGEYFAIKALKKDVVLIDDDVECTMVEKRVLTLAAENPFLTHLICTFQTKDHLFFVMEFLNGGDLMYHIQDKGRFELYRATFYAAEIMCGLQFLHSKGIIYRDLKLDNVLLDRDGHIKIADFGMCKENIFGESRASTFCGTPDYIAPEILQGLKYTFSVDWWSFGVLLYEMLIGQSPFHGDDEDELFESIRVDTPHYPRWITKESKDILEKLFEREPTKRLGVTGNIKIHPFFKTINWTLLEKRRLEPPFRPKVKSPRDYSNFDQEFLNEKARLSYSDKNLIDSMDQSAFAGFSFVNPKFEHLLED
T3 sequence (P31751 whole entry): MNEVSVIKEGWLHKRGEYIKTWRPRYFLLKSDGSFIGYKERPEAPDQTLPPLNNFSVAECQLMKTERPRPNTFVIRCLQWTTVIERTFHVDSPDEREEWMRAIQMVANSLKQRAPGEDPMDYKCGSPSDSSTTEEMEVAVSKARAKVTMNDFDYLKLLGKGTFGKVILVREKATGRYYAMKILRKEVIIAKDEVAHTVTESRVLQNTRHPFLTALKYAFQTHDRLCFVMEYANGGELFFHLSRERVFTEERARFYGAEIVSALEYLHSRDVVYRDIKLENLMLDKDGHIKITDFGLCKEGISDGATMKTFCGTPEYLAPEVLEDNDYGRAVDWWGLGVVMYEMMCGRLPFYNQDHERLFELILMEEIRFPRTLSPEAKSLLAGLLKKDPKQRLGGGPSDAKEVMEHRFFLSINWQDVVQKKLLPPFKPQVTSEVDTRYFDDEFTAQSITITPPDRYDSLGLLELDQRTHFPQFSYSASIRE

Row | Sequence | CaMKI Kinase Activity (%) (+SD %) (CaMKI; peptide 100 μM) | IRAK4 Kinase Activity (%) (+SD %) (IRAK4; peptide 100 μM) | PKBβ Kinase Activity (%) (+SD %) (PKBβ; peptide 100 μM) | PKCδ Kinase Activity (%) (+SD %) (PKCδ; peptide 100 μM) | ROCK-1 Kinase Activity (%) (+SD %) (ROCK-I; peptide 100 μM) | CaMK1 Kinase Activity (CaMKI) | PKBβ Kinase Activity (PKBβ) | PKCδ Kinase Activity (PKCδ) | ROCK-1 Kinase Activity (ROCK-I) | other results
1 | WLRRIKAWLRRIKALNRQLGVAA | 0 (2) % | 13 (4) % | 16 (5) % | 40 (2) % | 25 (2) % |  |  |  |  | CaMKI Kinase Activity (%) (+SD %) (CaMKI; peptide 30 μM): 9(1) %; CaMKI Kinase Activity (%) (+SD %) (CaMKI; [1]): 9 (1) %; IRAK4 Kinase Activity (%) (+SD %) (IRAK4; peptide 30 μM): 12(1) %; IRAK4 Kinase Activity (%) (+SD %) (IRAK4; [1]): 12 (1) %; PKBβ Kinase Activity (%) (+SD %) (PKBβ; peptide 30 μM): 18(2) %; PKBβ Kinase Activity (%) (+SD %) (PKBβ; [1]): 18 (2) %; PKCδ Kinase Activity (%) (+SD %) (PKCδ; peptide 30 μM): 11(0) %; PKCδ Kinase Activity (%) (+SD %) (PKCδ; [1]): 11 (0) %; ROCK-1 Kinase Activity (%) (+SD %) (ROCK-I; peptide 30 μM): 0(1) %; ROCK-1 Kinase Activity (%) (+SD %) (ROCK-I; [1]): 0 (1) %
2 | YARAAARQARAKALARQLGVAA |  |  |  |  |  | 2(0) % | 17(2) % | 101(3) % | 27(4) % | 
3 | YARAAARQARAKALNRQLGVAA |  |  |  |  |  | 8(1) % | 96(1) % | 105(2) % | 95(7) % | IRAK4 Kinase Activity (IRAK4; peptide inhibitor 300 μM, SD of 2 samples): 68(3) %
4 | KAFAKLAARLYRKALARQLGVAA | 0 (2) % | 16 (2) % | 28 (4) % | 24 (3) % | 29 (0) % |  |  |  |  | CaMKI Kinase Activity (%) (+SD %) (CaMKI; [2]): 0(2) %; IRAK4 Kinase Activity (%) (+SD %) (IRAK4; [2]): 16(2) %; PKBβ Kinase Activity (%) (+SD %) (PKBβ; [2]): 28(4) %; PKCδ Kinase Activity (%) (+SD %) (PKCδ; [2]): 24(3) %; ROCK-1 Kinase Activity (%) (+SD %) (ROCK-I; [2]): 29(0) %
5 | FAKLAARLYRKALARQLGVAA | 0(2) % | 13(4) % | 16(5) % | 40(2) % | 25(2) % |  |  |  |  | 

From US9327008B2, “Cell-permeant peptide-based inhibitor of kinases” (Purdue Research Foundation, priority 2008, dated 2016)
